Experimental findings from article PMC10108200, “Reaction Pathways for the Enzymatic Degradation of Poly(Ethylene Terephthalate): What Characterizes an Efficient PET‐Hydrolase?” (Chembiochem, 2022) are described below.

As a reminder, the Km is the concentration of substrate that gives half-maximal velocity. What is called kcat is the maximal rate divided by the concentration of active sites.

Test in all cases: initial rates by RP-HPLC, Michaelis-Menten fit
Substrate in data set [1]: O=C(O)c1ccc(C(=O)OCCO)cc1
The data set is classed as biochemical, unidentified prokaryotic organism. The following applies: 50 °C, 2 h, 0-2 mM substrate, 0.01-0.5 μM enzyme. The text has this: (§1) initial rates by RP-HPLC, Michaelis-Menten fit on LCC

Substrate in data set [2]: O=C(O)c1ccc(C(=O)OCCOC(=O)c2ccc(C(=O)OCCO)cc2)cc1
The data set is classed as biochemical, unidentified prokaryotic organism. The following applies: 50 °C, 10 min, 0-2 mM substrate, 0.01-0.5 μM enzyme.
From the text: as §1

Substrate in data set [3]: O=C(O)c1ccc(C(=O)OCCOC(=O)c2ccc(C(=O)OCCOC(=O)c3ccc(C(=O)O)cc3)cc2)cc1
The data set is classed as biochemical, unidentified prokaryotic organism. The following applies: 50 °C, 10 min, 0-2 mM substrate, 0.01-0.5 μM enzyme.
From the text: as §1

Substrate in data set [4]: O=C(OCCO)c1ccc(C(=O)OCCO)cc1
The data set is classed as biochemical, unidentified prokaryotic organism. The following applies: 50 °C, 10 min, 0-2 mM substrate, 0.01-0.5 μM enzyme.
From the text: as §1

Substrate in data set [5]: O=C(O)c1ccc(C(=O)OCCO)cc1
The data set is classed as biochemical, Thermobifida fusca. The following applies: 50 °C, 2 h, 0-2 mM substrate, 0.01-0.5 μM enzyme. The text has this:
(§2) initial rates by RP-HPLC, Michaelis-Menten fit on TfC

Substrate in data set [6]: O=C(O)c1ccc(C(=O)OCCOC(=O)c2ccc(C(=O)OCCO)cc2)cc1
The data set is classed as biochemical, Thermobifida fusca. The following applies: 50 °C, 10 min, 0-2 mM substrate, 0.01-0.5 μM enzyme.
From the text: as §2

Substrate in data set [7]: O=C(O)c1ccc(C(=O)OCCOC(=O)c2ccc(C(=O)OCCOC(=O)c3ccc(C(=O)O)cc3)cc2)cc1
The data set is classed as biochemical, Thermobifida fusca. The following applies: 50 °C, 10 min, 0-2 mM substrate, 0.01-0.5 μM enzyme.
From the text: as §2

Substrate in data set [8]: O=C(OCCO)c1ccc(C(=O)OCCO)cc1
The data set is classed as biochemical, Thermobifida fusca. The following applies: 50 °C, 10 min, 0-2 mM substrate, 0.01-0.5 μM enzyme.
From the text: as §2

Substrate in data set [9]: O=C(O)c1ccc(C(=O)OCCOC(=O)c2ccc(C(=O)OCCO)cc2)cc1
The data set is classed as biochemical, Mycothermus thermophilus. The following applies: 50 °C, 10 min, 0-2 mM substrate, 0.01-0.5 μM enzyme. An excerpt:
(§3) initial rates by RP-HPLC, Michaelis-Menten fit on HiC

Substrate in data set [10]: O=C(O)c1ccc(C(=O)OCCOC(=O)c2ccc(C(=O)OCCOC(=O)c3ccc(C(=O)O)cc3)cc2)cc1
The data set is classed as biochemical, Mycothermus thermophilus. The following applies: 50 °C, 10 min, 0-2 mM substrate, 0.01-0.5 μM enzyme.
From the text: as §3

B1: LCC (unidentified prokaryotic organism) (protein)
chain: QSNPYQRGPNPTRSALTADGPFSVATYTVSRLSVSGFGGGVIYYPTGTSLTFGGIAMSPGYTADASSLAWLGRRLASHGFVVLVINTNSRFDYPDSRASQLSAALNYLRTSSPSAVRARLDANRLAVAGHSMGGGGTLRIAEQNPSLKAAVPLTPWHTDKTFNTSVPVLIVGAEADTVAPVSQHAIPFYQNLPSTTPKVYVELDNASHFAPNSNNAAISVYTISWMKLWVDNDTRYRQFLCNVNDPALSDFRTNNRHCQ
notes: heterologously expressed and purified
As for B1, the Km in data set [1] was determined as 1200 ± 130 µM; in data set [2] it was 120 ± 35 µM; in data set [3], 790 ± 410 µM; in data set [4], 960 ± 160 µM. For the same protein, the kcat in data set [1] was 0.048 ± 0.0033 s⁻¹; in [2], 21 ± 1.7 s⁻¹; in data set [3], 300 ± 122 s⁻¹; in [4], 6.2 ± 0.62 s⁻¹.

B2: TfC (Thermobifida fusca YX) (protein)
chain: ANPYERGPNPTDALLEASSGPFSVSEENVSRLSASGFGGGTIYYPRENNTYGAVAISPGYTGTEASIAWLGERIASHGFVVITIDTITTLDQPDSRAEQLNAALNHMINRASSTVRSRIDSSRLAVMGHSMGGGGTLRLASQRPDLKAAIPLTPWHLNKNWSSVTVPTLIIGADLDTIAPVATHAKPFYNSLPSSISKAYLELDGATHFAPNIPNKIIGKYSVAWLKRFVDNDTRYTQFLCPGPRDGLFGEVEEYRSTCPF
B2: the Km was found to be 3800 ± 91 µM in data set [5], 170 ± 16 µM in [6], 170 ± 38 µM in data set [7] and 230 ± 67 µM in data set [8]. Also, the kcat in data set [6] worked out at 11 ± 0.35 s⁻¹; in data set [7], 62 ± 7.3 s⁻¹; in data set [8], 1.1 ± 0.12 s⁻¹.

B3: HiC (Mycothermus thermophilus) (protein)
chain: QLGAIENGLESGSANACPDAILIFARGSTEPGNMGITVGPALANGLESHIRNIWIQGVGGPYDAALATNFLPRGTSQANIDEGKRLFALANQKCPNTPVVAGGYSQGAALIAAAVSELSGAVKEQVKGVALFGYTQNLQNRGGIPNYPRERTKVFCNVGDAVCTGTLIITPAHLSYTIEARGEAARFLRDRIRA
For B3, in data set [9], the Km came out at 77 ± 9.1 µM and the kcat turned out to be 2.9 ± 0.098 s⁻¹. In addition, in data set [10], the Km was 89 ± 21 µM and the kcat is 24 ± 2.9 s⁻¹.
